Measured values from publication PMC8005358 (Science translational medicine, 2019).

B1: recombinant human erythroferrone, wild type (ERFE^WT) (natural protein, UniProt Q4G0M1 29-354, looked up)
chain: SPEPGAPSRSRARREPPPGNELPRGPGESRAGPAARPPEPTAERAHSVDPRDAWMLFVRQSDKGVNGKKRSRGKAKKLKFGLPGPPGPPGPQGPPGPIIPPEALLKEFQLLLKGAVRQRERAEPEPCTCGPAGPVAASLAPVSATAGEDDDDVVGDVLALLAAPLAPGPRAPRVEAAFLCRLRRDALVERRALHELGVYYLPDAEGAFRRGPGLNLTSGQYRAPVAGFYALAATLHVALGEPPRRGPPRPRDHLRLLICIQSRCQRNASLEAIMGLESSSELFTISVNGVLYLQMGQWTSVFLDNASGCSLTVRSGSHFSAVLLGV
B2: recombinant human erythroferrone variant with a VPFQ insertion (ERFE^VPFQ) (natural protein, UniProt Q4G0M1 29-354, looked up)
chain: SPEPGAPSRSRARREPPPGNELPRGPGESRAGPAARPPEPTAERAHSVDPRDAWMLFVRQSDKGVNGKKRSRGKAKKLKVPFQFGLPGPPGPPGPQGPPGPIIPPEALLKEFQLLLKGAVRQRERAEPEPCTCGPAGPVAASLAPVSATAGEDDDDVVGDVLALLAAPLAPGPRAPRVEAAFLCRLRRDALVERRALHELGVYYLPDAEGAFRRGPGLNLTSGQYRAPVAGFYALAATLHVALGEPPRRGPPRPRDHLRLLICIQSRCQRNASLEAIMGLESSSELFTISVNGVLYLQMGQWTSVFLDNASGCSLTVRSGSHFSAVLLGV

Target: the molecule itself
Assay: SDS-PAGE in reducing and non-reducing conditions

Protein	stoichiometry N
B1	3
B2	3
